# *1 amine or outer side, *2 acyl side, *3 side chain or, on linkers, in order; H or OH if unused. Side-chain parts run from the residue outwards. [ ]: non-standard residue; d: D form. The star is where a group is joined. C20 diacid = O=C(O)CCCCCCCCCCCCCCCCCCC(=O)*; C18 diacid = O=C(O)CCCCCCCCCCCCCCCCC(=O)*; γGlu = O=C(O)[C@H](CCC(=O)[*:2])N[*:1]; εLys = N[C@@H](CCCCN[*:1])C(=O)[*:2]; Stearoyl = CCCCCCCCCCCCCCCCCC(=O)*; AEEA = NCCOCCOCC(=O)O; Aib = CC(C)(N)C(=O)O
# T1: human GLP-2 receptor (hGLP2-R) (human, UniProt O95838 1-553)
# T1 sequence (looked up): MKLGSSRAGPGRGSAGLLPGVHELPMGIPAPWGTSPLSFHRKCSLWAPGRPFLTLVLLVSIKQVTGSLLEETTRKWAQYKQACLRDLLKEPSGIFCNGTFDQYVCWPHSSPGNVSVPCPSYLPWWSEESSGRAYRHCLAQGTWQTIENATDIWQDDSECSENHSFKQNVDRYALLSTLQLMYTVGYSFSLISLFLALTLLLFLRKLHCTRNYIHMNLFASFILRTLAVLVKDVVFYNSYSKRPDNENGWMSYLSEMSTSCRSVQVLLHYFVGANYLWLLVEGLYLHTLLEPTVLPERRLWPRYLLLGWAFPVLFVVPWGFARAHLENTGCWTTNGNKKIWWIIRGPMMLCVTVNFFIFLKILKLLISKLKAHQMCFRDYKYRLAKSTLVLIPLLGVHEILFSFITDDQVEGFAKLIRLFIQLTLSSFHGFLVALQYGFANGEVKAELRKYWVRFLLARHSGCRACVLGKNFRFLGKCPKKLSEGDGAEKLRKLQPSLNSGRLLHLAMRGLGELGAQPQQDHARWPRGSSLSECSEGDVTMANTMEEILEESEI
# Key:
# [1] = target: human glucagon-like peptide 1 receptor (GLP-1 R) (human, UniProt P43220 24-463); assay: cell-based or functional assay
# [2] = target: T1, human GLP-2 receptor (hGLP2-R); assay: cell-based or functional assay
Binder,EC50 GLP-1 (nM); cAMP response [1],EC50 GLP-2 (nM); cAMP response [2]
H-H[Aib]EGTFSSELATILDEQAARDFIAWLIAHKITD[dK][dK][dK][dK][dK][dK]([γGlu-C18 diacid])-NH2 [Compound 38],0.25 nM,0.89 nM
"HXEGSFTSELATILDXQAARDFIAWLYQHKITD (HELM PEPTIDE1{H.[Aib].E.G.S.F.T.S.E.L.A.T.I.L.D.K.Q.A.A.R.D.F.I.A.W.L.Y.Q.H.K.I.T.D}|PEPTIDE2{[O=C(O)CCCCCCCCCCCCCCCCC(=O)[*:2]].[gGlu].[O=C(COCCOCCN[*:1])[*:2]]}$PEPTIDE1,PEPTIDE2,16:R3-3:R2$$$V2.0; SMILES CC[C@H](C)[C@H](NC(=O)[C@H](Cc1ccccc1)NC(=O)[C@H](CC(=O)O)NC(=O)[C@H](CCCNC(=N)N)NC(=O)[C@H](C)NC(=O)[C@H](C)NC(=O)[C@H](CCC(N)=O)NC(=O)[C@H](CCCCNC(=O)COCCOCCNC(=O)CC[C@H](NC(=O)CCCCCCCCCCCCCCCCC(=O)O)C(=O)O)NC(=O)[C@H](CC(=O)O)NC(=O)[C@H](CC(C)C)NC(=O)[C@@H](NC(=O)[C@@H](NC(=O)[C@H](C)NC(=O)[C@H](CC(C)C)NC(=O)[C@H](CCC(=O)O)NC(=O)[C@H](CO)NC(=O)[C@@H](NC(=O)[C@H](Cc1ccccc1)NC(=O)[C@H](CO)NC(=O)CNC(=O)[C@H](CCC(=O)O)NC(=O)C(C)(C)NC(=O)[C@@H](N)Cc1c[nH]cn1)[C@@H](C)O)[C@@H](C)O)[C@@H](C)CC)C(=O)N[C@@H](C)C(=O)N[C@@H](Cc1c[nH]c2ccccc12)C(=O)N[C@@H](CC(C)C)C(=O)N[C@@H](Cc1ccc(O)cc1)C(=O)N[C@@H](CCC(N)=O)C(=O)N[C@@H](Cc1c[nH]cn1)C(=O)N[C@@H](CCCCN)C(=O)N[C@H](C(=O)N[C@H](C(=O)N[C@@H](CC(=O)O)C(=O)O)[C@@H](C)O)[C@@H](C)CC) [Compound 33]",0.85 nM,0.072 nM
"HXEGTFTSELATILDEQAARDFIAWLIAHKITDXXXXXXX (HELM PEPTIDE1{H.[Aib].E.G.T.F.T.S.E.L.A.T.I.L.D.E.Q.A.A.R.D.F.I.A.W.L.I.A.H.K.I.T.D.[dK].[dK].[dK].[dK].[dK].[dK].[am]}|PEPTIDE2{[O=C(O)CCCCCCCCCCCCCCCCC(=O)[*:2]].[gGlu]}$PEPTIDE1,PEPTIDE2,39:R3-2:R2$$$V2.0; SMILES CC[C@H](C)[C@H](NC(=O)[C@H](CC(C)C)NC(=O)[C@H](Cc1c[nH]c2ccccc12)NC(=O)[C@H](C)NC(=O)[C@@H](NC(=O)[C@H](Cc1ccccc1)NC(=O)[C@H](CC(=O)O)NC(=O)[C@H](CCCNC(=N)N)NC(=O)[C@H](C)NC(=O)[C@H](C)NC(=O)[C@H](CCC(N)=O)NC(=O)[C@H](CCC(=O)O)NC(=O)[C@H](CC(=O)O)NC(=O)[C@H](CC(C)C)NC(=O)[C@@H](NC(=O)[C@@H](NC(=O)[C@H](C)NC(=O)[C@H](CC(C)C)NC(=O)[C@H](CCC(=O)O)NC(=O)[C@H](CO)NC(=O)[C@@H](NC(=O)[C@H](Cc1ccccc1)NC(=O)[C@@H](NC(=O)CNC(=O)[C@H](CCC(=O)O)NC(=O)C(C)(C)NC(=O)[C@@H](N)Cc1c[nH]cn1)[C@@H](C)O)[C@@H](C)O)[C@@H](C)O)[C@@H](C)CC)[C@@H](C)CC)C(=O)N[C@@H](C)C(=O)N[C@@H](Cc1c[nH]cn1)C(=O)N[C@@H](CCCCN)C(=O)N[C@H](C(=O)N[C@H](C(=O)N[C@@H](CC(=O)O)C(=O)N[C@H](CCCCN)C(=O)N[C@H](CCCCN)C(=O)N[C@H](CCCCN)C(=O)N[C@H](CCCCN)C(=O)N[C@H](CCCCN)C(=O)N[C@H](CCCCNC(=O)CC[C@H](NC(=O)CCCCCCCCCCCCCCCCC(=O)O)C(=O)O)C(N)=O)[C@@H](C)O)[C@@H](C)CC) [Compound 39]",0.044 nM,0.98 nM
H-H[Aib]EGSFTSELATILDK([AEEA-AEEA-γGlu-C20 diacid])QAARDFIAWLKQHKITD-OH (SMILES CC[C@H](C)[C@H](NC(=O)[C@H](Cc1ccccc1)NC(=O)[C@H](CC(=O)O)NC(=O)[C@H](CCCNC(=N)N)NC(=O)[C@H](C)NC(=O)[C@H](C)NC(=O)[C@H](CCC(N)=O)NC(=O)[C@H](CCCCNC(=O)COCCOCCNC(=O)COCCOCCNC(=O)CC[C@H](NC(=O)CCCCCCCCCCCCCCCCCCC(=O)O)C(=O)O)NC(=O)[C@H](CC(=O)O)NC(=O)[C@H](CC(C)C)NC(=O)[C@@H](NC(=O)[C@@H](NC(=O)[C@H](C)NC(=O)[C@H](CC(C)C)NC(=O)[C@H](CCC(=O)O)NC(=O)[C@H](CO)NC(=O)[C@@H](NC(=O)[C@H](Cc1ccccc1)NC(=O)[C@H](CO)NC(=O)CNC(=O)[C@H](CCC(=O)O)NC(=O)C(C)(C)NC(=O)[C@@H](N)Cc1c[nH]cn1)[C@@H](C)O)[C@@H](C)O)[C@@H](C)CC)C(=O)N[C@@H](C)C(=O)N[C@@H](Cc1c[nH]c2ccccc12)C(=O)N[C@@H](CC(C)C)C(=O)N[C@@H](CCCCN)C(=O)N[C@@H](CCC(N)=O)C(=O)N[C@@H](Cc1c[nH]cn1)C(=O)N[C@@H](CCCCN)C(=O)N[C@H](C(=O)N[C@H](C(=O)N[C@@H](CC(=O)O)C(=O)O)[C@@H](C)O)[C@@H](C)CC) [Compound 34],0.28 nM,0.13 nM
H-H[Aib]EGSFTSELATILDK(Stearoyl)QAARDFIAWLIQYKITD-OH (SMILES CCCCCCCCCCCCCCCCCC(=O)NCCCC[C@H](NC(=O)[C@H](CC(=O)O)NC(=O)[C@H](CC(C)C)NC(=O)[C@@H](NC(=O)[C@@H](NC(=O)[C@H](C)NC(=O)[C@H](CC(C)C)NC(=O)[C@H](CCC(=O)O)NC(=O)[C@H](CO)NC(=O)[C@@H](NC(=O)[C@H](Cc1ccccc1)NC(=O)[C@H](CO)NC(=O)CNC(=O)[C@H](CCC(=O)O)NC(=O)C(C)(C)NC(=O)[C@@H](N)Cc1c[nH]cn1)[C@@H](C)O)[C@@H](C)O)[C@@H](C)CC)C(=O)N[C@@H](CCC(N)=O)C(=O)N[C@@H](C)C(=O)N[C@@H](C)C(=O)N[C@@H](CCCNC(=N)N)C(=O)N[C@@H](CC(=O)O)C(=O)N[C@@H](Cc1ccccc1)C(=O)N[C@H](C(=O)N[C@@H](C)C(=O)N[C@@H](Cc1c[nH]c2ccccc12)C(=O)N[C@@H](CC(C)C)C(=O)N[C@H](C(=O)N[C@@H](CCC(N)=O)C(=O)N[C@@H](Cc1ccc(O)cc1)C(=O)N[C@@H](CCCCN)C(=O)N[C@H](C(=O)N[C@H](C(=O)N[C@@H](CC(=O)O)C(=O)O)[C@@H](C)O)[C@@H](C)CC)[C@@H](C)CC)[C@@H](C)CC) [Compound 36],0.32 nM,3.2 nM
H-H[Aib]EGSFTSELATILDK([AEEA-AEEA-AEEA-εLys-C20 diacid])QAARDFIAWLIQQKITD-OH (SMILES CC[C@H](C)[C@H](NC(=O)[C@H](Cc1ccccc1)NC(=O)[C@H](CC(=O)O)NC(=O)[C@H](CCCNC(=N)N)NC(=O)[C@H](C)NC(=O)[C@H](C)NC(=O)[C@H](CCC(N)=O)NC(=O)[C@H](CCCCNC(=O)COCCOCCNC(=O)COCCOCCNC(=O)COCCOCCNC(=O)[C@@H](N)CCCCNC(=O)CCCCCCCCCCCCCCCCCCC(=O)O)NC(=O)[C@H](CC(=O)O)NC(=O)[C@H](CC(C)C)NC(=O)[C@@H](NC(=O)[C@@H](NC(=O)[C@H](C)NC(=O)[C@H](CC(C)C)NC(=O)[C@H](CCC(=O)O)NC(=O)[C@H](CO)NC(=O)[C@@H](NC(=O)[C@H](Cc1ccccc1)NC(=O)[C@H](CO)NC(=O)CNC(=O)[C@H](CCC(=O)O)NC(=O)C(C)(C)NC(=O)[C@@H](N)Cc1c[nH]cn1)[C@@H](C)O)[C@@H](C)O)[C@@H](C)CC)C(=O)N[C@@H](C)C(=O)N[C@@H](Cc1c[nH]c2ccccc12)C(=O)N[C@@H](CC(C)C)C(=O)N[C@H](C(=O)N[C@@H](CCC(N)=O)C(=O)N[C@@H](CCC(N)=O)C(=O)N[C@@H](CCCCN)C(=O)N[C@H](C(=O)N[C@H](C(=O)N[C@@H](CC(=O)O)C(=O)O)[C@@H](C)O)[C@@H](C)CC)[C@@H](C)CC) [Compound 35],0.099 nM,0.3 nM
